# Test results from publication PMC12289918 (Nature Communications, 2025).
# T1: K11-HTS-Tail (KLP-11 residues 537-782) (Caenorhabditis elegans, UniProt Q19633 537-782)
# T1 sequence (looked up): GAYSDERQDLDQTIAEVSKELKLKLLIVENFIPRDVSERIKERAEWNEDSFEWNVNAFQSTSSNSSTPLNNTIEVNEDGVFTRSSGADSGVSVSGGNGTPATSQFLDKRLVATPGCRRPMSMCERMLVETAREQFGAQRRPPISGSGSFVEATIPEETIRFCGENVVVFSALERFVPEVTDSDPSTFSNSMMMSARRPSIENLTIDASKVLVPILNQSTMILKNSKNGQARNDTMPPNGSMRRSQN
# B1: K20-HTS-Tail (KLP-20 residues 527-646) (domain or fragment, Caenorhabditis elegans, UniProt Q965T6 527-646, looked up)
# chain: EDHQRQVEAMLDDIRQLRKELLLNIAIIDEYIPVEHVELIEKYVSWSEEHGDWQLKAIAYTGNNMRASAPPAKKEFSNNNQTVPMYYSYRADLGASTAEHRPRTSSKKHRASIRLQQLLT
# Biological target: T1, K11-HTS-Tail (KLP-11 residues 537-782)
# Test: SEC-MALS
binder,measurement,value
B1,stoichiometry N,1
